Reference: article PMC5633906, “Introducing site-specific cysteines into nanobodies for mercury labelling allows de novo phasing of their crystal structures” (Acta Crystallographica. Section D, Structural Biology, 2017)
Positions count from the first letter of the chain named.

Molecular target: T1, human complement component C5 (Homo sapiens, UniProt P01031)
T1 construct: complement C5 beta chain, human, cut product of the C5 precursor; complement C5 alpha chain, human, cut product of the C5 precursor; also called Human C5; C5 antigen; source: purified as described previously (Laursen et al., 2010; Schatz-Jakobsen et al., 2016)
Test: BLI; Octet RED; histidine-tagged Nbs immobilised on Anti-Penta-HIS biosensors at 2.5 µg/ml; C5 62.5 to 2000 nM in PBS; association 700 s, dissociation 1800 s; global fit
Conditions: both partners purified

B1: native Nb36 nanobody (VHH)
VHH: QVQLVESGGGLVQAGGSLRLSCVVSGSAVSDYAMGWYRQAPGKQRELVAAIYNSGRTNYVDSVKGRFTISKDNAKKTVYLQMNSLKPEDTADYFCNLLGATTMSNAVWGQGTQVTVSS
notes: Selected by phage display from a llama immunised with human C5; construct in pET-22b(+) with an N-terminal PelB signal for secretion into the periplasm; also called nonmodified Nb36; Nb36-Nat1; source: E. coli LOBSTR, purified (Ni Sepharose, Superdex 75); not shown: 6xHis, C-terminal, kept
  Kd: ~86 nM

B2: PCMB-labelled Nb36-C85 (VHH)
VHH: B1 VHH with S84C
notes: as the VHH of m1 with Ser85Cys (position 82b in the Kabat nomenclature); Construct in pET-22b(+) with an N-terminal PelB signal for secretion into the periplasm; In the crystals the benzoate moiety of PCMB was not seen; also called Nb36 Ser85Cys labelled with PCMB; Hg-labelled Nb36-C85; source: E. coli LOBSTR, purified (Ni Sepharose, Superdex 75), labelled with PCMB; not shown: 6xHis, C-terminal, …
  Kd: ~37 nM
